Experiment [1] concerns the target T1, human chemokine receptor CCR6 (human, UniProt P51684 1-374).
T1 sequence (looked up): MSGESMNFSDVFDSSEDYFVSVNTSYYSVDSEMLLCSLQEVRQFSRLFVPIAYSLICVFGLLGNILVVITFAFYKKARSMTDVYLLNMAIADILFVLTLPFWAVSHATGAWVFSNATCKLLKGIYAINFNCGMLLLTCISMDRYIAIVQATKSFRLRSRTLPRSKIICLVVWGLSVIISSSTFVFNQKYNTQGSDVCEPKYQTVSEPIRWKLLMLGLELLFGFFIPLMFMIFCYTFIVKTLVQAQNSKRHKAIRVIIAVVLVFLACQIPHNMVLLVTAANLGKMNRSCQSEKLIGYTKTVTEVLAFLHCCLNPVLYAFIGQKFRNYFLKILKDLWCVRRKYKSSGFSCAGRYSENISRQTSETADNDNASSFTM
The experiment is described as follows: cell-based or functional assay.

Experiment [2] has as its target T1, human chemokine receptor CCR6. The experiment is described as follows: cell-based or functional assay. This is another data set of the same source.
Another experiment deals with T2, human CXCR6 (human, UniProt O00574 1-342).
T2 construct: whole, on cells
Briefly: flow cytometry on GPCR-expressing cell panel.

For experiment [3], the target named is T1, human chemokine receptor CCR6. Briefly: flow cytometry on cells expressing the target, IgG1 titration, anti-human Fc-PE. For orientation: In flow cytometry, cells or beads pass a laser one at a time.
The target in experiment [4] is T3, cynomolgus monkey CCR6 (cynomolgus monkey (Macaca Fascicularis)).
T3 construct: whole, on cells; gene derived from a total RNA library; also called CCR6 cyno; cyno CCR6
The description is as above.

Experiment [5] has as its target T4, mouse CCR6 (mouse, UniProt O54689 1-367).
T4 construct: whole, on cells; gene derived from a cDNA library; also called CCR6 mouse
T4 sequence (looked up): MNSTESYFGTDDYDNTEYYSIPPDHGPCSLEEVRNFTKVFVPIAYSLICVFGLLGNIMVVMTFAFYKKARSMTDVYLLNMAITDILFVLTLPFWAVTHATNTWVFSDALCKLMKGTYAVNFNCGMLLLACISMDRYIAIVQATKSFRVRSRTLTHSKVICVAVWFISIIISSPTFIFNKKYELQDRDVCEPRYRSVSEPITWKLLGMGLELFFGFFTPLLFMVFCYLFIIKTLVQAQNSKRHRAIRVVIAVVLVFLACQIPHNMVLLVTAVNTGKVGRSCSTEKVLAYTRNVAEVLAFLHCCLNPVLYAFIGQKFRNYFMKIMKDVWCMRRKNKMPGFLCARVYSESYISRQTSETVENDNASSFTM
The experiment is described as above.

Experiment [6] deals with T1, human chemokine receptor CCR6. Briefly: flow cytometry on cells expressing the target, IgG1 titration (repeat of Table 2).
In experiment [7] the target is T3, cynomolgus monkey CCR6. The experiment is described as above.
Experiment [8] addresses T4, mouse CCR6. The description is as above.
Experiment [9] addresses T4, mouse CCR6. Briefly: flow cytometry on CHO cells expressing mouse CCR6.
The target in experiment [10] is T1, human chemokine receptor CCR6. The experiment is described as follows: flow cytometry on R1610 cells expressing human CCR6, IgG1 titration, anti-human Fc-PE.

T2 sequence (O00574 whole entry): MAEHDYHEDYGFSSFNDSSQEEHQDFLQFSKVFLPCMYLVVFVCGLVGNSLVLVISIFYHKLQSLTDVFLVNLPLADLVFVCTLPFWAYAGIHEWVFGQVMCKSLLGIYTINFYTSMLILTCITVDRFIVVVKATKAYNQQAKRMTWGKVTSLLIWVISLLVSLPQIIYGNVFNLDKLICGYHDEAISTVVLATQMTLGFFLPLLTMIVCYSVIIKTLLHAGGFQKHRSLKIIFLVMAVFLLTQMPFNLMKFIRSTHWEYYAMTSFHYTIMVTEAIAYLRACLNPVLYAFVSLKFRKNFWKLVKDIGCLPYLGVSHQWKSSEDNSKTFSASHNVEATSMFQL

B1: MSM-R607 IgG1 (antibody, V domains shown)
VH: EVQLLESGGGLVQPGGSLRLSCAASGFTFSSYYMHWVRQAPGKGLEWVSLIAPANSDTYYADSVKGRFTISRDNSKNTLYLQMNSLRAEDTAVYYCARSSYTRHSSKRGMDYWGQGTLVTVSS
VL: EIVLTQSPGTLSLSPGERATLSCRASQSVSSSYLAWYQQKPGQAPRLLIYGASSRATGIPDRFSGSGSGTDFTLTISRLEPEDFAVYYCQQAAYSPITFGQGTKVEIKR
notes: Fully human IgG1
On to B1, for which, in [1], the “IC50, nM CCL20-Ca-Flux” value was 13.5 nM. For the same molecule, in experiment [2], the “Ca-Flux IC50, nM CCR6/CCL20” value came to 13.5 nM. Besides, the binding result with human CXCR6 was “binds”. The concentration giving a half-maximal response (EC50) was 1.2 nM in experiment [3]; 2 nM in the experiment with cynomolgus monkey CCR6 [4]; 1 nM in the experiment with mouse CCR6 [5]; 1.2 nM in experiment [6]; 2 nM with cynomolgus monkey CCR6 [7]; 1 nM in the experiment with mouse CCR6 [8].

B2: MSM-R604 IgG1 (antibody, V domains shown)
VH: EVQLLESGGGLVQPGGSLRLSCAASGFTFTNYSMHWVRQAPGKGLEWVSLISPYSSSTYYADSMKGRFTISRDNSKNTLYLQMNSLRAEDTAVYYCARGRYYGAYSYPGFDYWGQGTLVTVSS
VL: EIVLTQSPGTLSLSPGERATLSCRASQSVSSSYLAWYQQKPGQAPRLLIYGASSRATGIPDRFSGSGSGTDFTLTISRLEPEDFAVYYCQQSAKNPLTFGQGTKVEIKR
notes: Fully human IgG1
As for B2, the binding result with mouse CCR6 [9] is given as “no binding”. The EC50 in experiment [3] was 2.9 nM; with cynomolgus monkey CCR6 [4], 1.5 nM; in experiment [6] it was 2.9 nM; in the experiment with cynomolgus monkey CCR6 [7], 1.5 nM.

B3: MSM-R610 IgG1 (antibody, V domains shown)
VH: EVQLLESGGGLVQPGGSLRLSCAASGFTFTGSSMSWVRQAPGKGLEWVSLISSRGSYTYYADSVKGRFTISRDNSKNTLYLQMNSLRAEDTAVYYCARSYAYQYRGLDYWGQGTLVTVSS
VL: EIVLTQSPGTLSLSPGERATLSCRASQSVSSSYLAWYQQKPGQAPRLLIYGASSRATGIPDRFSGSGSGTDFTLTISRLEPEDFAVYYCQQNRTSPITFGQGTKVEIKR
notes: Fully human IgG1; also called MSM R610.46
Turning to B3, the binding result with mouse CCR6 [9] is “no binding”. Further, the EC50 (in [3]; in the experiment with cynomolgus monkey CCR6 [4]; in [6]; in the experiment with cynomolgus monkey CCR6 [7]) was above 100 nM in each case.

B4: MSM-R615 IgG1 (antibody, V domains shown)
VH: EVQLLESGGGLVQPGGSLRLSCAASGFTFSSYYMHWVRQTPGKGLEWVSIISPWSSSTYYADSVKGRFTISRDNSKNTLYLQMNSLRAEDTAVYYCARSSYSWGESYKRAIDYWGQGTLVTVSS
VL: EIVLTQSPGTLSLSHGERATLSCRASQSVSSSYLAWYQQKPGQAPRLLIYGASSRATGIPDRFSGSGSGTDFTLTISRLEPEDFAVYYCQQSYYSPVTFGQGTKVEIKR
notes: Fully human IgG1
As for B4, the binding result in the experiment with mouse CCR6 [9] is “no binding”. For the same molecule, the EC50 with cynomolgus monkey CCR6 [4] worked out at 2.5 nM; in experiment [6] it was 1 nM; in the experiment with cynomolgus monkey CCR6 [7], 2.5 nM; in [10], 1 nM.

B5: MSM-R609 IgG1 (antibody, V domains shown)
VH: EVQLLESGGGLVQPGGSLRLSCAASGFTFTASYMSWVRQAPGKGLEWVSNISPKYGNTYYADSVKGRFTISRDNSKNTLYLQMNSLRAEDTAVYYCARSIRSAKYSYYGIDYWGQGTLVTVSS
VL: EIVLTQSPGTLSLSPGERATLSCRASQSVSSSYLAWYQQKPGQAPRLLIYGASSRATGIPDRFSGSGSGTDFTLTISRLEPEDFAVYYCQQSASAPVTFGQGTKVEIKR
notes: Fully human IgG1
As to B5, the EC50 turned out to be 1 nM in [3], 1.6 nM with cynomolgus monkey CCR6 [4], 1 nM in [6] and 1.6 nM with cynomolgus monkey CCR6 [7].

B6: MSM-R622 IgG1 (antibody, V domains shown)
VH: EVQLLESGGGLVQPGGSLRLSCAASGFTFSKNSMSWVRQAPGKGLEWVSLITSYSGYTYYADSVKGRFTISRDNSKNTLYLQMNSLRAEDTAVYYCARSYAYQYRGLDYWGQGTLVTVSS
VL: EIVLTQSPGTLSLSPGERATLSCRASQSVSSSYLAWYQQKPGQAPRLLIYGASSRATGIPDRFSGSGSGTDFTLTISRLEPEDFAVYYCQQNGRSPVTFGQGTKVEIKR
notes: Fully human IgG1; also called MSM R622.46
For the molecule B6, the EC50 in experiment [3] and in [6] was 1.9 nM throughout.

B7: MSM-R606 IgG1 (antibody)
heavy: not shown
light: EIVLTQSPGTLSLSPGERATLSCRASQSVSSSYLAWYQQKPGQAPRLLIYGASSRATGIPDRFSGSGSGTDFTLTISRLEPEDFAVYYCQQSSYSPITFGQGTKVEIKRTVAAPSVFIFPPSDEQLKSGTASVVCLLNNFYPREAKVQWKVDNALQSGNSQESVTEQDSKDSTYSLSSTLTLSKADYEKHKVYACEVTHQGLSSPVTKSFNRGEC
notes: Fully human IgG1
On to B7, for which the “IC50, nM CCL20-Ca-Flux” value in experiment [1] came to 8.3 nM. In addition, the “Ca-Flux IC50, nM CCR6/CCL20” value in experiment [2] amounted to 8.3 nM. Besides, the EC50 in [3] was determined as 1.4 nM; in the experiment with cynomolgus monkey CCR6 [4] it was 1.7 nM; with mouse CCR6 [5], 0.7 nM; in [6], 1.4 nM; with cynomolgus monkey CCR6 [7] it was 1.7 nM; in the experiment with mouse CCR6 [8], 0.7 nM.

B8: MSM-R608 IgG1 (antibody)
heavy: not shown
light: EIVLTQSPGTLSLSPGERATLSCRASQSVSSSYLAWYQQKPGQAPRLLIYGASSRATGIPDRFSGSGSGTDFTLTISRLEPEDFAVYYCQQSYYAPVTFGQGTKVEIKRTVAAPSVFIFPPSDEQLKSGTASVVCLLNNFYPREAKVQWKVDNALQSGNSQESVTEQDSKDSTYSLSSTLTLSKADYEKHKVYACEVTHQGLSSPVTKSFNRGEC
notes: Fully human IgG1
Turning to B8, the concentration giving a half-maximal response (EC50) came to 2 nM in experiment [3]; 2.5 nM in the experiment with cynomolgus monkey CCR6 [4]; 1 nM in the experiment with mouse CCR6 [5]; 2 nM in [6]; 2.5 nM in the experiment with cynomolgus monkey CCR6 [7]; 1 nM with mouse CCR6 [8].

B9: MSM-R612 IgG1 (antibody, V domains shown)
VH: EVQLLGSGGGLVQPGGSLRLSCAASGFTFTTYYMHWVRQAPGKGLEWVSLISPNAGNTYYADSVKGRFTISRDNSKNTLYLQMNSLRAEDTAVYYCARGRSRAGTSGMDYWGQGTLVTVSS
VL: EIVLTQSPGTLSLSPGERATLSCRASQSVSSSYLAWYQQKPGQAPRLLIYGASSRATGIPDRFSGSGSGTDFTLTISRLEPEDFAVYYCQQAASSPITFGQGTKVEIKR
notes: Fully human IgG1
In the case of B9, the concentration for a half-maximal effect (EC50) was determined as 1 nM in experiment [3]; 1.6 nM in the experiment with cynomolgus monkey CCR6 [4]; 1.5 nM with mouse CCR6 [5]; 1 nM in experiment [6]; 1.6 nM in the experiment with cynomolgus monkey CCR6 [7]; 1.5 nM with mouse CCR6 [8].

B10: MSM-R617 IgG1 (antibody, V domains shown)
VH: EVQLLESGGGLVQPGGSLRLSCAASGFTFSGYAMHWVRQAPGKGLEWVSSIGSRRGFTSYADSVKGRFTISRDNSKNTLYLQMNSLRAEDTAVYYCARSYAYQYRGLDYWGQGTLVTVSS
VL: EIVLTQSPGTLSLSPGERATLSCRASQSVSSSYLAWYQQKPGQAPRLLIYGASSRATGIPDRFSGSGSGTDFTLTISRLEPEDFAVYYCQQRSSVTFGQGTKVEIKR
notes: Fully human IgG1; also called MSMR617.46
Turning to B10, the EC50 in experiment [3] turned out to be 1.5 nM; with cynomolgus monkey CCR6 [4], 1.9 nM; in experiment [6], 1.5 nM; with cynomolgus monkey CCR6 [7], 1.9 nM.

B11: MSM-R619 IgG1 (antibody, V domains shown)
VH: EVQLLESGGGLVQPGGSLRLSCAASGFTFSNYYIHWVRQAPGKGLEWVSLISPGGSTTYYADSVKGRFTISRDNSKNTLYLQMNSLRAEDTAVYYCARGRTWWSTYYSGIDYWGQGTLVTVSS
VL: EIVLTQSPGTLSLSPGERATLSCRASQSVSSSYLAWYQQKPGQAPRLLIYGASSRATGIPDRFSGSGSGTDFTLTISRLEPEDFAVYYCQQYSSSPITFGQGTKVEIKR
notes: Fully human IgG1; also called MSM R19
Take B11: in the experiment with mouse CCR6 [9], the binding result is “no binding”. Moreover, the 50% effective concentration (EC50) in experiment [3] worked out at 1.7 nM; in the experiment with cynomolgus monkey CCR6 [4] it was 2 nM; in [6], 1.7 nM; in the experiment with cynomolgus monkey CCR6 [7], 2 nM.

B12: MSM-R621 IgG1 (antibody, V domains shown)
VH: EVQLLESGGGLVQPGGSLRLSCAASGFTFTTYYMHWVRQAPGKGLEWVSGIGPRGSWTGYADSVKGRFTISRDNSKNTLYLQMNSLRAEDTAVYYCARGRALVSNYSGLDYWGQGTLVTVSS
VL: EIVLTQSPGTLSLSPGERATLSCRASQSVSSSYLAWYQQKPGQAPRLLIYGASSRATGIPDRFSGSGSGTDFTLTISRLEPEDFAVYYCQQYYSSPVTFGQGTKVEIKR
notes: Fully human IgG1
For the molecule B12, in the experiment with human CXCR6, the binding result is “binds”. The EC50 came out at 1.5 nM in [3]; 2.2 nM with cynomolgus monkey CCR6 [4]; 30 nM with mouse CCR6 [5]; 1.5 nM in experiment [6]; 2.2 nM in the experiment with cynomolgus monkey CCR6 [7]; 30 nM in the experiment with mouse CCR6 [8].

Usually EC50 stands for the concentration needed to bring the measured effect to its halfway point.

For the origin of these results see patent US20150337037A1 (MSM PROTEIN TECHNOLOGIES, published 2015).
